Patent US20160333105A1 (UCB, published 2016)

Experiments:
[1] = target: T1, human serum albumin (human, UniProt P02768 25-609); assay: SPR, Biacore 3000; construct captured by anti-CH1 antibody, HSA as analyte, 1:1 model
T1 construct: Bought reagent; also called HSA
Protocol: (§1) The (A26Fab-645Fv)₂-Fc samples were captured to the sensor chip surface using either a human Fe-specific goat F(ab′)₂ (Jackson ImmunoResearch, 109-006-098) or an in-house generated anti-human CH1 monoclonal antibody. Covalent immobilisation of the capture antibody was achieved by standard amine coupling chemistry.
(§2) Kinetic binding analysis by SPR was conducted to assess the interactions of human serum albumin (HSA) to the (A26Fab-645Fv)₂-Fc fusion, when captured using either anti-Fc or anti CH1 antibody.

[2] = target: T1, human serum albumin; assay: SPR, Biacore 3000; construct captured by anti-Fc F(ab')2, HSA as analyte, 1:1 model
Protocol: as §1, §2

[3] = target: T1, human serum albumin; assay: SPR (BIAcore), HSA as analyte

Kd [1]: 0.97 nM
koff [1]: 6e-05 s⁻¹
kon [1]: 62000 M⁻¹ s⁻¹
Kd [2]: 1.88 nM
koff [2]: 7.14e-05 s⁻¹
kon [2]: 38000 M⁻¹ s⁻¹
Kd [3]: 0.97 nM
Stoichiometry [3]: 0.55
koff [3]: 6e-05 s⁻¹
kon [3]: 62100 M⁻¹ s⁻¹
B1: (A26Fab-645Fv)2-Fc (bispecific antibody)
heavy: not shown
light: DIQMTQSPSSLSASVGDRVTITCRATQSIYNALAWYQQKPGKAPKLLIYNANTLHTGVPSRFSASGSGTDSTLTISSLQPEDFATYYCQQYYDYPLTFGGGTKVEIKRTVAAPSVFIFPPSDEQLKSGTASVVCLLNNFYPREAKVQWKVDNALQSGNSQESVTEQDSKDSTYSLSSTLTLSKADYEKHKVYACEVTHQGLSSPVTKSFNRGECSGGGGSGGGGSDIVMTQSPSSVSASVGDRVTITCQSSPSVWSNFLSWYQQKPGKAPKLLIYEASKLTSGVPSRFKGSGSGTDFTLTISSLQPEDFATYYCGGGYSSISDTTFGGGTKVEIKRMHEQKLISEEDL
notes: Tested as HEK293 supernatant; also called (FabFv)2Fc; (A26-645Fv)2-Fc
